Data: the supplement of paper PMC10567573

B1: ATE1 (parent)
chain: YGSFHQQYWLDGKIIAVGVIDILP

Variants of: B1
Test: protein stability index of a GFP-peptide fusion (GPS, HEK-293T) (PSI 1-6); higher = more stable
Settings: c terminus: a fixed tail appended
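Further: lentivirally expressed fusions sorted by FACS into six bins by GFP to DsRed ratio, PSI derived from sequencing read proportions per bin multiplied by bin number.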

Row | Variant | protein stability index
1 | YGSFHQQYWLDQKIIAVGVIDILP | 2.45
2 | YGSFHQQYWLDRKIIAVGVIDILP | 3.98
3 | YGSFHQQYWLDKKIIAVGVIDILP | 2.14
4 | YGSFHQQYWLDVKIIAVGVIDILP | 2.04
5 | YGSFHQQYWLDTKIIAVGVIDILP | 3.42
6 | YGSFHQQYWLDIKIIAVGVIDILP | 3.89
7 | YGSFHQQYWLDCKIIAVGVIDILP | 2.02
8 | YGSFHQQYWLDSKIIAVGVIDILP | 1.91
9 | YGSFHQQYWLDNKIIAVGVIDILP | 2.45
10 | YGSFHQQYWLDDKIIAVGVIDILP | 2.68
11 | YGSFHQQYWLDAKIIAVGVIDILP | 2.54
12 | YGSFHQQYWSDGKIIAVGVIDILP | 3.74
13 | YGSFHQQYWTDGKIIAVGVIDILP | 1.74
14 | YGSFHQQYWMDGKIIAVGVIDILP | 2.16
15 | YGSFHQQYWYDGKIIAVGVIDILP | 1.97
16 | YGSFHQQYWRDGKIIAVGVIDILP | 2.32
17 | YGSFHQQYWEDGKIIAVGVIDILP | 2.75
18 | YGSFHQQYWDDGKIIAVGVIDILP | 2.64
19 | YGSFHQQYWIDGKIIAVGVIDILP | 3.3
20 | YGSFHQQYWPDGKIIAVGVIDILP | 3.12
21 | YGSFHQQYWHDGKIIAVGVIDILP | 2.42
22 | YGSFHQQYWCDGKIIAVGVIDILP | 2.9
23 | YGSFHQQYWWDGKIIAVGVIDILP | 2.66
24 | YGSFHQQYWVDGKIIAVGVIDILP | 3.17

Row | Variant | protein stability index
25 | YGSFHQQYWQDGKIIAVGVIDILP | 3.96
26 | YGSFHQQYWKDGKIIAVGVIDILP | 3.17
27 | YGSFHQQYWNDGKIIAVGVIDILP | 3.14
28 | YGSFHQSYWLDGKIIAVGVIDILP | 4.74
29 | YGSFHQRYWLDGKIIAVGVIDILP | 2.99
30 | YGSFHQDYWLDGKIIAVGVIDILP | 2.72
31 | YGSFHQWYWLDGKIIAVGVIDILP | 4.02
32 | YGSFHQIYWLDGKIIAVGVIDILP | 2.67
33 | YGSFHQFYWLDGKIIAVGVIDILP | 2.02
34 | YGSFHQMYWLDGKIIAVGVIDILP | 1.76
35 | YGSFHQPYWLDGKIIAVGVIDILP | 2.94
36 | YGSFHQCYWLDGKIIAVGVIDILP | 3.33
37 | YGSFHQTYWLDGKIIAVGVIDILP | 3.51
38 | YGSFHQAYWLDGKIIAVGVIDILP | 4.84
39 | YGSFHQHYWLDGKIIAVGVIDILP | 2.4
40 | YGSFHQLYWLDGKIIAVGVIDILP | 2.01
41 | YGSFHQGYWLDGKIIAVGVIDILP | 3.84
42 | YGSFHQQFWLDGKIIAVGVIDILP | 3.62
43 | YGSFHQQHWLDGKIIAVGVIDILP | 2.57
44 | YGSFHQQKWLDGKIIAVGVIDILP | 2.35
45 | YGSFHQQNWLDGKIIAVGVIDILP | 3.57
46 | YGSFHQQPWLDGKIIAVGVIDILP | 2.93
47 | YGSFHQQDWLDGKIIAVGVIDILP | 2.78
48 | YGSFHQQWWLDGKIIAVGVIDILP | 2.58

Row | Variant | protein stability index
49 | YGSFHQQQWLDGKIIAVGVIDILP | 3.04
50 | YGSFHQQIWLDGKIIAVGVIDILP | 3.92
51 | YGSFYQQYWLDGKIIAVGVIDILP | 3.26
52 | YGSFHQQYCLDGKIIAVGVIDILP | 2.17
53 | YGSFHQQYYLDGKIIAVGVIDILP | 2.97
54 | YGSFHQQYPLDGKIIAVGVIDILP | 3.09
55 | YGSFHQQYKLDGKIIAVGVIDILP | 3.09
56 | YGSFHQQYSLDGKIIAVGVIDILP | 2.48
57 | YGSFHQQYDLDGKIIAVGVIDILP | 2.53
58 | YGSFHQQYELDGKIIAVGVIDILP | 2.26
59 | YGSFHQQYILDGKIIAVGVIDILP | 3.29
60 | YGSFHQQYLLDGKIIAVGVIDILP | 3.27
61 | YGSFHQQYVLDGKIIAVGVIDILP | 3.47
62 | YGSFHQQYQLDGKIIAVGVIDILP | 1.69
63 | YGSFHQQYRLDGKIIAVGVIDILP | 3.46
64 | YGSFHQQYNLDGKIIAVGVIDILP | 1.9
65 | YGSFHQQYHLDGKIIAVGVIDILP | 3.06
66 | YGSFHQQYALDGKIIAVGVIDILP | 2.18
67 | YGSFHQQYMLDGKIIAVGVIDILP | 1.98
68 | YGSFHQQYWLSGKIIAVGVIDILP | 2.47
69 | YGSFHQQYWLTGKIIAVGVIDILP | 3.15
70 | YGSFHQQYWLFGKIIAVGVIDILP | 3.33
71 | YGSFHQQYWLAGKIIAVGVIDILP | 4.43
72 | YGSFHQQYWLNGKIIAVGVIDILP | 3.47

Row | Variant | protein stability index
73 | YGSFHQQYWLPGKIIAVGVIDILP | 2.24
74 | YGSFHQQYWLKGKIIAVGVIDILP | 3.39
75 | YGSFHQQYWLVGKIIAVGVIDILP | 2.38
76 | YGSFHQQYWLHGKIIAVGVIDILP | 2.8
77 | YGSFHQQYWLWGKIIAVGVIDILP | 2.72
78 | YGSFHQQYWLIGKIIAVGVIDILP | 2.1
79 | YGSFHQQYWLGGKIIAVGVIDILP | 1.06
80 | YGSFHQQYWLDGAIIAVGVIDILP | 2.3
81 | YGSFHQQYWLDGCIIAVGVIDILP | 2.44
82 | YGSFHIQYWLDGKIIAVGVIDILP | 3.08
83 | YGSFHSQYWLDGKIIAVGVIDILP | 2.86
84 | YGSFHAQYWLDGKIIAVGVIDILP | 3.19
85 | YGSFHTQYWLDGKIIAVGVIDILP | 3.63
86 | YGSFHWQYWLDGKIIAVGVIDILP | 1.19
87 | YGSFHKQYWLDGKIIAVGVIDILP | 3.09
88 | YGSFHRQYWLDGKIIAVGVIDILP | 3.54
89 | YGSFHDQYWLDGKIIAVGVIDILP | 2.55
90 | YGSFHGQYWLDGKIIAVGVIDILP | 2.41
91 | YGSFHYQYWLDGKIIAVGVIDILP | 2.43
92 | YGSFHFQYWLDGKIIAVGVIDILP | 2.94
93 | YGSFHNQYWLDGKIIAVGVIDILP | 3.97
94 | YGSFHHQYWLDGKIIAVGVIDILP | 2.7
